First the molecules themselves.
B6: hActRIIB-hFc (human ActRIIB ECD linked to human IgG1 Fc) (Fc fusion, not shown: a dimerising Fc or GST)
chain: SGRGEAETRECIYYNANWELERTNQSGLERCEGEQDKRLHCYASWRNSSGTIELVKKGCWLDDFNCYDRQECVATEENPQVYFCCCEGNFCNERFTHLPEAGGPEVTYEPPPTAPTLLT

In assay [1] the target is T1, hActRIIB-mFc (human; mouse, UniProt Q13705 19-137).
T1 construct: not shown: murine IgG2a Fc (captured by antibody against murine IgG2a Fc)
T1 sequence: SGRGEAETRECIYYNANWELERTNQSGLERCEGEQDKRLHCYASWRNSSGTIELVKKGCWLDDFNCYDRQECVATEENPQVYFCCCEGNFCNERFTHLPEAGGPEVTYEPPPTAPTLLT
In words: SPR (BIACORE), hActRIIB-mFc captured on anti-murine IgG2a Fc chip, antibody in solution, 25 C. As to the method: (§1) FIG. 2 depicts kinetic characterization of Ab-17G05 binding to hActRIIB-mFc as determined by BIACORE™-based analysis at 25° C. (A) or 37° C. (B). hActRIIB-mFc was captured on a chip with covalently immobilized antibody against murine IgG2a Fc and then exposed to Ab-17G05 at concentrations ranging from 0.0195 μg/ml to 5 μg/ml.
(§2) BIACORE™-based analysis was used to characterize binding of Ab-17G05 to ActRIIB. For this analysis, Ab-17G05 was purified from COS-cell-conditioned media by one-step protein G chromatography.
(In general: SPR reads the build-up and loss of mass on a sensor chip optically.)

Assay [2] has as its target T1, hActRIIB-mFc. Nature of the assay: SPR (BIACORE), hActRIIB-mFc captured on anti-murine IgG2a Fc chip, antibody in solution, 37 C. As to the method:
FIG. […] (A) or 37° C. (B). hActRIIB-mFc was captured on a chip with covalently immobilized antibody against murine IgG2a Fc and then exposed to Ab-17G05 at concentrations ranging from 0.0195 μg/ml to 5 μg/ml.
as §2

The target of assay [3] is B6. Nature of the assay: cell-based or functional assay.
The target in assay [4] is T1, hActRIIB-mFc. Nature of the assay: SPR (BIACORE), Ab-17G05 on hActRIIB-mFc compared with Fab-17G05 on hActRIIB-hFc. The protocol: as §1, §2
The target in assay [5] is B6. Nature of the assay: SPR (BIACORE), hActRIIB-hFc captured on anti-human IgG1 Fc chip, Fab in solution, 37 C; 37 C. The protocol:
(§3) FIG. […] (A) or 37° C. (B). hActRIIB-hFc was captured on a chip with covalently immobilized antibody against human IgG1 Fc and then exposed to Fab-17G05 at concentrations ranging from 0.0195 μg/ml to 5 μg/ml. RU, response units.

The target in assay [6] is B6. Nature of the assay: SPR (BIACORE), hActRIIB-hFc captured on anti-human IgG1 Fc chip, Fab in solution, 25 C. The protocol:
(§4) FIG. 1 depicts kinetic characterization of Fab-17G05 binding to hActRIIB-hFc as determined by BIACORE™-based analysis at 25° C. (A) or 37° C. (B). hActRIIB-hFc was captured on a chip with covalently immobilized antibody against human IgG1 Fc and then exposed to Fab-17G05 at concentrations ranging from 0.0195 μg/ml to 5 μg/ml. RU, response units.

The target in assay [7] is B6. In words: SPR (BIACORE), hActRIIB-hFc captured on anti-human IgG1 Fc chip, Fab in solution, 37 C. As to the method:
as §3

Assay [8] concerns the target B6. Nature of the assay: SPR (BIACORE), hActRIIB-hFc captured on anti-human IgG1 Fc chip, Fab in solution, 25 C (values of Example 4 reprinted for comparison). The protocol:
as §4

Assay [9] deals with B6. In words: SPR (BIACORE), hActRIIB-hFc captured on anti-human IgG1 Fc chip, Fab in solution, 25 C (values of Example 4 reprinted for comparison); 25 C; Fab values reprinted for comparison with Ab-17G05. As to the method: as §4
Assay [10] addresses B6. Nature of the assay: SPR (BIACORE), hActRIIB-hFc captured on anti-human IgG1 Fc chip, Fab in solution, 37 C (values of Example 4 reprinted for comparison). The protocol: as §3
Assay [11] concerns the target B6. In words: SPR (BIACORE) competition: biotinylated ActRIIB-Fc on streptavidin chip, sFab 40 ug/ml then GDF11 500 ng/ml; competitor GDF11. As to the method: Affinity-purified sFabs were also screened in two SPR-based competition assays at Acceleron. The first assay evaluated the effect of sFab pretreatment on binding of GDF11 to immobilized ActRIIB-Fc. […] This signal was compared with a second signal (residual GDF11 binding) resulting from GDF11 binding to immobilized ActRIIB-Fc that had first been exposed to sFab (40 μg/ml).

The target in assay [12] is B6. In words: SPR (BIACORE), human ActRIIB-hFc, Fab in solution, 37 C.
Assay [13] has as its target B6. Nature of the assay: SPR (BIACORE), human ActRIIB-hFc, Fab in solution, 25 C.
In assay [14] the target is B6. Nature of the assay: SPR (BIACORE), human ActRIIB-hFc, Fab in solution, 25 C; 25 C.
A further assay has as its target T2, activin A (UniProt P08476 311-426).
T2 sequence (looked up): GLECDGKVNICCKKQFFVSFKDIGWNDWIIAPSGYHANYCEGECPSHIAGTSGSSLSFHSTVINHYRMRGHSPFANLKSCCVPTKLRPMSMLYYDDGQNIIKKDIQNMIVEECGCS
In words: cell-based or functional assay.

Bounds are passed on as bounds.

As usually defined, the Kd is the equilibrium constant for the complex coming apart. The term koff denotes a measure of how fast the partners let go of each other. Read a low koff as a long-lived complex. As a reminder, the kon is the rate constant with which the complex forms. A low value points to slower complex formation.

B1: Ab-17G05 (antibody, V domains shown)
VH: EVQLLESGGGLVQPGGSLRLSCAASGFTFSNYWMGWVRQAPGKGLEWVSYIRSSGGLTHYADSVKGRFTISRDNSKNTLYLQMNSLRAEDTATYYCAKGLYSFDYWGQGTLVTVSS
VL: DIQMTQSPSSLSASVGDRVTITCRASQGVNNFLAWYQQKPGKAPRLLIYAASTLQSGVPSRFSGSGSGTDFTLSISNLQPEDFATYYCQQSYSTPRGFGQGTKVEIK
notes: also called antibody 17G05; Ab-R17G05
For the molecule B1, in the assay with hActRIIB-mFc [1], the Kd came to 0.028 nM, the koff turned out to be 2.7e-05 s⁻¹ and the on-rate (kon) worked out at 970000 M⁻¹ s⁻¹. Besides, in the assay with hActRIIB-mFc [2], binding was put at a Kd of 0.092 nM, the koff stood at 0.00014 s⁻¹ and the kon was found to be 1.5e+06 M⁻¹ s⁻¹. In [3], the “IC50 of neutralization, A204 cell-based reporter gene assay (activin A 5 ng/ml plus ActRIIB-Fc 50 ng/ml)” value is approximately 0.04 nM. Moreover, in the assay with hActRIIB-mFc [4], the “fold improvement in off-rate and KD against Fab-17G05” value was not below 20 fold.

B2: Fab-17G05 (Fab, V domains shown)
VH: EVQLLESGGGLVQPGGSLRLSCAASGFTFSNYWMGWVRQAPGKGLEWVSYIRSSGGLTHYADSVKGRFTISRDNSKNTLYLQMNSLRAEDTATYYCAKGLYSFDYWGQGTLVTVSS
VL: DIQMTQSPSSLSASVGDRVTITCRASQGVNNFLAWYQQKPGKAPRLLIYAASTLQSGVPSRFSGSGSGTDFTLSISNLQPEDFATYYCQQSYSTPRGFGQGTKVEIK
notes: the Fab constant domains are not; also called sFab 17G05; Fab-R17G05
For the molecule B2, the Kd in assay [5] came out at 1.9 nM; in assay [6] it was 0.55 nM; in assay [8], 0.55 nM; in assay [10], 1.9 nM. Moreover, the koff in assay [6] stood at 0.00087 s⁻¹; in [7] it was 0.0031 s⁻¹; in [8], 0.00087 s⁻¹; in assay [10] it was 0.0031 s⁻¹. Further, the kon in assay [6] was determined as 1.6e+06 M⁻¹ s⁻¹; in assay [7] it was 2.6e+06 M⁻¹ s⁻¹; in [9], 1.6e+06 M⁻¹ s⁻¹; in [10] it was 2.6e+06 M⁻¹ s⁻¹. Also, in assay [3], the “IC50 of neutralization, A204 cell-based reporter gene assay (activin A 5 ng/ml plus ActRIIB-Fc 50 ng/ml)” value is approximately 2.6 nM. Moreover, the “residual GDF11 binding” value in [11] was < 50 % of Emax.

B3: Fab-17G01 (Fab, V domains shown)
VH: EVQLLESGGGLVQPGGSLRLSCAASGFTFSNYQMDWVRQAPGKGLEWVSYIGPSGGRTKYADSVKGRFTISRDNSKNTLYLQMNSLRAEDTATYYCARGLYSFDYWGQGTLVTVSS
VL: DIQMTQSPSSLSASVGDRVTITCRAGQSISNFLNWYQHTPGTGPKVLIYAASSLQSGVPSRFSGSGSGTEFTLTITNLQPEDFATYYCQQSYSTPFTFGPGTKVDIK
notes: Soluble Fab from Dyax's Fab310 library; the Fab constant domains are not; also called sFab 17G01
In assay [12], B3 returned a Kd of 21 nM, a koff of 0.012 s⁻¹ and a kon of 580000 M⁻¹ s⁻¹. In assay [11], the “residual GDF11 binding” value was < 50 % of Emax. Further, in [13], the affinity, expressed as Kd, was 3.8 nM; the koff turned out to be 0.0018 s⁻¹; the kon was found to be 460000 M⁻¹ s⁻¹.

B4: Fab-17C09 (Fab, V domains shown)
VH: EVQLLESGGGLVQPGGSLRLSCAASGFTFSQYNMTWVRQAPGKGLEWVSSIYSSGGVTPYADSVKGRFTISRDNSKNTLYLQMNSLRAEDTAVYYCARGRLLFDYWGQGTLVTVSS
VL: DIQMTQSPSSLSASVGDRVTITCRASQSISNYLNWYQQRPGKPPKLLIYAASSLQSGVPSRFSGSGSGTDFSLSISILQPEDFATYYCQQGYTAPRSFGQGTKVEIK
notes: Soluble Fab from Dyax's Fab310 library; the Fab constant domains are not; also called sFab 17C09
Turning to B4, in assay [11], the “residual GDF11 binding” value was < 50 % of Emax.

B5: Fab-17A11 (Fab, V domains shown)
VH: EVQLLESGGGLVQPGGSLRLSCAASGFTFSTYAMMWVRQAPGKGLEWVSRIYPSGGTTTYADSVKGRFTISRDNSKNTLYLQMNSLRAEDTAVYYCARGSAASSYWGQGTLVTVSS
VL: DIQMTQSPSFLSASVGDRVTITCRASQGISNYLAWYQQKPGKAPKLLIYAASTLQSGVPSRFSGSGSGTEFTLTISSLQPEDIGTYYCQQLISYPFTFGPGTKVDIK
notes: Soluble Fab from Dyax's Fab310 library; the Fab constant domains are not; also called sFab 17A11
Regarding B5, in assay [12], binding was put at a Kd of 9.9 nM, the koff turned out to be 0.014 s⁻¹ and the kon worked out at 1.4e+06 M⁻¹ s⁻¹. In assay [11], the “residual GDF11 binding” value is < 50 % of Emax. In [14], this molecule displayed a Kd of 1.6 nM. Further, in [13], the koff turned out to be 0.00019 s⁻¹ and the kon was 1.2e+06 M⁻¹ s⁻¹.

Consider B6, for which, in the assay with activin A, the “IC50 of inhibition of activin A signaling, A204 reporter gene assay (activin A 5 ng/ml)” value is 0.05 µg/mL.

For the origin of these results see patent publication US20130108650A1 (ACCELERON PHARMA, published 2013).
